B1: STAM-binding protein (Homo sapiens), O95630 (parent)
chain: MSDHGDVSLPPEDRVRALSQLGSAVEVNEDIPPRRYFRSGVEIIRMASIYSEEGNIEHAFILYNKYITLFIEKLPKHRDYKSAVIPEKKDTVKKLKEIAFPKAEELKAELLKRYTKEYTEYNEEKKKEAEELARNMAIQQELEKEKQRVAQQKQQQLEQEQFHAFEEMIRNQELEKERLKIVQEFGKVDPGLGGPLVPDLEKPSLDVFPTLTVSSIQPSDCHTTVRPAKPPVVDRSLKPGALSNSESIPTIDGLRHVVVPGRLCPQFLQLASANTARGVETCGILCGKLMRNEFTITHVLIPKQSAGSDYCNTENEEELFLIQDQQGLITLGWIHTHPTQTAFLSSVDLHTHCSYQMMLPESVAIVCSPKFQETGFFKLTDHGLEEISSCRQKGFHPHSKDPPLFCSCSHVTVVDRAVTITDLR

Variants of: B1
Conditions: with stam2_human STAM2, O75886

effect of a mutation on the interaction | Variant
with no effect | K229H
decreasing interaction | K238T

Source: IntAct's records for PubMed 27725184
